From patent publication US20260008852A1 (CRYSTAL BIOSCIENCE, published 2026)

T1: B7-H3 on CHO-K1 cells stably transfected with B7-H3 (GenScript #M00536) (UniProt Q5ZPR3 29-534, limits assumed)
T1 sequence (looked up): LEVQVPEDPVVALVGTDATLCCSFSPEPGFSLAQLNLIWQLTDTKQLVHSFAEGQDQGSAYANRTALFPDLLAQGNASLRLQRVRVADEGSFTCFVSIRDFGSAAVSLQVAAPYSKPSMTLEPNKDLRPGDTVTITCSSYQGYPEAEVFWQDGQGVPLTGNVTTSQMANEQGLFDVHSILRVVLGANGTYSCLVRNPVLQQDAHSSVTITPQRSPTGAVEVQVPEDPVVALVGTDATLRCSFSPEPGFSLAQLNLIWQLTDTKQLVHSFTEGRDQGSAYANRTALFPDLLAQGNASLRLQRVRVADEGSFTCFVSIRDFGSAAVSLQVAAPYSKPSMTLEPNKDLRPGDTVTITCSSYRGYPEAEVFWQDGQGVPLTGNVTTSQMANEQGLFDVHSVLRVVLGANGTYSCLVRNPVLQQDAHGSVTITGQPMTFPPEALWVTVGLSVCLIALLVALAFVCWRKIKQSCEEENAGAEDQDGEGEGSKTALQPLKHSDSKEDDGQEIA


Target: T1, B7-H3 on CHO-K1 cells stably …
Experiment: cell-based or functional assay

Binder	ADCC reporter assay, EC50 Value, CHOK1/B7-H3 cells	ADCC reporter assay, Max RLU, CHOK1/B7-H3 cells
40633p1.2.F3 IgG (antibody, V domains shown) VH: EVQLLESGGGLVQPGGSLRLSCAASGFTVSYYGMSWVRQAPGKGLEWVSVIKQDGSEEYYADSVKGRFTISRDNSKNTLYLQMNSLRAEDTAVYYCARHWNDYSNGMNVWGQGTTVTVSS VL: not shown	0.03 µg/mL	700000 RLU
40579p1.C2 IgG (antibody, V domains shown) VH: EVQLLESGGDLVQPGGSLRLSCAASGFNFSSYWMSWVRQAPGKGLEWVSGISISYGGNAYYADSVKGRFTVSRDNSKNTLYLQMNSLRAEDTAVYYCGRDRSPYQYRSMDVWGQGTTVTVSS VL: EIVLTQSPATLSVSPGERATFSCRASQTIGNKLAWYQQKPGQAPRLLIFSASTRATDIPDRFSGSGSGTDFTLTISSLQSEDFAVYYCQQYNNWPPLTFGGGTKVEIK	0.0116 µg/mL	843000 RLU
40579p1.D8 IgG (antibody, V domains shown) VH: EVQLLESGGGLVQPGGSLRLSCAASGFTFSDYYMSWVRQAPGKGLEWVSSISISYGGTTYYADSVKGRFTISRDNSKNTLYLQMNSLRAEDTAVYYCARDRSPYQCRSMDVWGQGTTVTVSS VL: EIVLTQSPGTLSLSPGERATLSCRASQSIRSDLAWYQQKPGQAPRLLIYNTVTRATGVPDRFSGSGSGTEFTLTISSLQSEDFAVYYCQQYNSWPPLTFGGGTKVEIK	0.075 µg/mL	728000 RLU
40579p1.D1 IgG (antibody, V domains shown) VH: EVQLLESGGGLVQPGGSLRLSCAASGFTFSDYYMSWVRQAPGKGLEWVSSISISYGGTTYYADSVKGRFTISRDNSKNTLYLQMNSLRAEDTAVYYCARDRSPYQCRSMDVWGQGTTVTVSS VL: EIVLTQSPGSLSLSPGERATLSCRASQSVNSDLAWYQQKPGQAPRLLIYAASSRATGIPARFSGSGSGTEFTLTISSLQSEDFAVYYCQQYNNWPPLTFGGGTKVEIK	0.274 µg/mL	744000 RLU
40579p1.G1 IgG (antibody, V domains shown) VH: EVQLLESGGGLVQPGGSLRLSCAASGFNFSSYWMSWVRQAPGKGLEWVSGISISYGGNAYYADSVKGRFTVSRDNSKNTLYLQMNSLRAEDTAVYYCGRDRSPYQYRSMDVWGQGTTVTVSS VL: EIVLTQSPGTLSLSPGERATLSCRASQSIRSDLAWYQQKPGQAPRLLIYGASSRATGIPARFSGSGSGTEFTLTISSLQSEDFAVYYCQQYNNWPPLTFGGGTKVEIK	0.0115 µg/mL	806000 RLU
40579p1.F7 IgG (antibody, V domains shown) VH: EVQLLESGGGLVQPGGSLRLSCAASGFTFSDYYMSWVRQAPGKGLEWVSGISISYGGNAYYADSVKGRFTVSRDNSKNTLYLQMNSLRAEDTAVYYCGRDRSPYQYRSMDVWGQGTTVTVSS VL: EIVLTQSPGTLSLSPGERATLTCRASQSVGDFLAWYQQKPGQAPRLLIYGASTRAAGIPARFRGSGSGTDFTLTISSLQSEDFAVYYCQQYKNWPPLTFGGGTKVEIK	0.0124 µg/mL	641000 RLU
40511p1.1.A1 IgG (antibody, V domains shown) VH: DVQLVESGGGVVRPGESLRLSCAASGFTFSNYAMNWVRQAPGEGLEWVSRINYKGYNITYYADSVKGRFTISRDNSKNTLYLQMNSLRAEDTAVYYCAKSGSNSNNFFDYWGLGTLVTVSS VL: EIVLTQSPGTLSVSPGERATLSCRASQSVNSKLAWYQQRPGQAPRLLIYDASSRATGIPDRFSGSGSGTDFTLTISRLEPEDFAVYYCQQYKNWPPLTFGGGTKVEIK	0.0124 µg/mL	820000 RLU
40511p1.1.H5 IgG (antibody, V domains shown) VH: DVQLVESGGGVVRPGESLRLSCAASGFTFSNYAMNWVRQAPGEGLEWVSRINYKGYNITYYADSVKGRFTISRDNSKNTLYLQMNSLRAEDTAVYYCAKSGSNSNNFFDYWGLGTLVTVSS VL: EIVLTQSPGTLSLSPGERATLSCRASQSIRSDLAWYQQKPGQAPRLLIYGAASRATGIPARFSGSGSGTEFTLTISSLQSGDFAVYYCQQYNSWPPLTFGGGTKVEIK	0.0164 µg/mL	762000 RLU
40511p1.1.G3 IgG (antibody, V domains shown) VH: DVQLVESGGGVVRPGESLTLSCAASGFTINSYAVSWVRQAPGEGLEWVSGISGSGVRYYADSVKGRFTISRDDSNNTLYLQMNSLRAEDTAVYYCARSNKVTWNNFFDYWGLGTLVTVSS VL: EVVLTQSPGTLTLSPGERATLSCRASRSILTSLAWYQQKPGQAPRLLIYNTVTRATGIPARFSGSGSGTEFTLTINSLQSEDFAVYYCQQYYDWPPLTFGGGTKVEIK	0.0141 µg/mL	723000 RLU
40511p1.1.G1 IgG (antibody, V domains shown) VH: DVQLVESGGGVVRPGESLRLSCAASGFTFSSYAESWVRQAPGEGLEWVSIISGSGGNTFYADSVKGRFTISRDNSKNTLYLQMNSLRAEDTAVYYCARFAYGFFDYWGLGTLVTVSS VL: EIVLTQSPGTLSVSPGEGATLSCRASQTVGSKLAWYQQKPGQPPSLLIYDASTRATGIPDRFSGSGSGTDFTLTISSLQSEDFAVYYCQQYRNWPPLTFGGGTKVEIK	0.0416 µg/mL	679000 RLU
40511p1.2.A12 IgG (antibody, V domains shown) VH: DVQLVESGGGVVRPGESLRLSCAASGFTFSSYAESWVRQAPGEGLEWVSIISGSGGNTFYADSVKGRFTISRDNSKNTLYLQMNSLRAEDTAVYYCARFAYGFFDYWGLGTLVTVSS VL: EIVLTQSPGTLSVSPGERATLSCRASQTVGSKLAWYQQKPGQPPSLLIYDASTRATGIPDRFSGSGSGTDFTLTISSLQSEDFAVYYCQQYRNWPPLTFGGGTKVEIK	0.0352 µg/mL	598000 RLU
40511p1.2.G10 IgG (antibody, V domains shown) VH: DVQLVESGGGVVRPGESLRLSCAASGFTFSNYAMNWVRQAPGEGLEWVSRINYKGYNITYYADSVKGRFTISRDNSKNTLYLQMNSLRAEDTAVYYCAKSGSNSNNFFDYWGLGTLVTVSS VL: EIVLTQSPGTLSLSPGERATLSCRASQTVGSKLAWYQQKPGQAPRLLIYGASTRATDIPDRFSGSGSGTEFTLTISSLQSEDFAVYYCQQYINWPPLSFGGGTKVEIK	~0.0103 µg/mL	893000 RLU
40511p1.2.A4 IgG (antibody, V domains shown) VH: DVQLVESGGGVVRPGESLRLSCAASGFTFSSYAESWVRQAPGEGLEWVSIISGSGGNTFYADSVKGRFTISRDNSKNTLYLQMNSLRAEDTAVYYCARFAYGFFDYWGLGTLVTVSS VL: EIVLTQSPGTLSVSPGERATLSCRASQTVGSKLAWYQQKPGQAPRLLIYDASTRATDIPDRFSGSGSGTDFTLTISSLQSEDFAVYYCQQYRNWPPLTFGGGTKVEIK	0.0318 µg/mL	548000 RLU
